Target: U1-A protein of the native human U1 snRNP (human (endogenous in HeLa)) (UniProt P09012)
Assay: native MS; nano ESI-MS of the intact U1 snRNP purified from HeLa cells, 200 mM ammonium acetate, Q-ToF2, collision cell 100 V; the complex holds U1 snRNA

UniProt P09012, sequence (P09012 whole entry): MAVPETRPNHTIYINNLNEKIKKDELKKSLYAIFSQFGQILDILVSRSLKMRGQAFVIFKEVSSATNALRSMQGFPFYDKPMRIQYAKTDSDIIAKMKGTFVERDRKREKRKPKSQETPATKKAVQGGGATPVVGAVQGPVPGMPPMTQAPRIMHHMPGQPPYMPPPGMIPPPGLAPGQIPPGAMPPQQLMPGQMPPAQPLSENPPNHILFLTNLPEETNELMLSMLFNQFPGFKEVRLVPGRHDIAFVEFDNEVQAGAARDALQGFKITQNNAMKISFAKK

Substance | stoichiometry N
Sm-D1 (from UniProt P62314 1-119) (natural protein; other documents disagree on this pair) | 1
Sm-F (from UniProt P62306 1-86) (natural protein; other documents disagree on this pair) | 1
